{"source": "the supplement of paper PMC9170038"}
{"tested_on": "MS2 coat protein", "experiment": "apparent KD of MS2 coat protein; higher = weaker reporter binding", "details": "Eterna round: R107; input ligand: theophylline 2 mM", "method_in_brief": "(§1)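 Titration buffer: 100 mM Tris-HCl pH 7.5, 80 mM KCl, 4 mM MgCl2, without or with constant ligand. Designed RNA switches transcribed on-chip from Illumina sequencing clusters received SNAP-549-labelled MS2 coat protein in twofold steps from 0.7 or 1.5 nM to 3 µM. Apparent KD is the median per design of fits to normalised cluster binding curves.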", "units": {"apparent KD of MS2 coat protein": "nM"}}
{"sequence": "ACACAAUACAUGAGGAUCACCCAUGUAAAACGAGGACCGGUACGGCCGCCACUCGAAUACAGGAAACCUCGGAAUAUUAAGUGAA [JR_ExcTryptA_Sub001]", "apparent KD of MS2 coat protein": 95.8}
{"sequence": "GUAUACAUGAGGAUCACCCAUGUACCAGAAGGAGCGCUGGAAACAGCAGGUAGGUCGCUGGUAGGUCCUCUAUCUAGACGUUCUA [EAA NP+V+V2 #5]", "apparent KD of MS2 coat protein": 195}
{"sequence": "UGGGAAGGAGGAAGGAGCGCCAUAAGGGUGACAGUCUGGGUACAUGAGGAUCACCCAUGUAGGCAGGUAGGUCGCCUAGCUCUCA [XArg-B16]", "apparent KD of MS2 coat protein": 12.9}
{"sequence": "ACAAGAGGGAUGGAUACCAGCGACAUGAGGAUCACCCAUGUAUGAGGAUCAGCCAUGUUAUGCCCUUGGCAGCCACGAACAUCAG [SSAMULLIN]", "apparent KD of MS2 coat protein": 125}
{"sequence": "UUAAUCAUUAUAGAAAACUAUAAUGCAGAAGGAGCGUGAUAAAACACAGGUAGGUCGCUGAAGGGAACAUGAGGAUCACCCAUGU [AstrosSSArgA#6]", "apparent KD of MS2 coat protein": 39.4}
{"sequence": "CUCCUGUGAGCGGCCGCCACUGGAGGCCUCGCGCGACAUGAGGAUCACCCAUGUUGGCCCGGCCUCAGGACCGGGUUCGCGCGAG [Same State - Tryptophan B Attempt #4 (HarryS)]", "apparent KD of MS2 coat protein": 10.7}
{"sequence": "AAUAGCUUGAGGAUCACCCAAGUAAAAGAUACCAGAGUGAUGAUCCUCCCUUGGCAGCUUAACGCUGAUUGAUUACAAUCAGCGA", "apparent KD of MS2 coat protein": 106}
{"tested_on": "MS2 coat protein", "experiment": "apparent KD of MS2 coat protein; higher = weaker reporter binding", "details": "Eterna round: R107; input ligand: tryptophan 2.4 mM", "method_in_brief": "as §1", "units": {"apparent KD of MS2 coat protein": "nM"}}
{"sequence": "ACCUACACGGAGACGUGUAGGAGUAAUGAUACCAGCAUGGAGACAUGCCCUUGGCAGCGUUACAUGAGGAUCACCCAUGUAGGUU [ETHA #4]", "apparent KD of MS2 coat protein": 43.1}
{"sequence": "GAGUUCCUGAGAGAUACCAGUGAGGCCACAUGAGGAUCACCCAUGUCCCUCACUCCGGCCCACCCUUGGCAGCUCGAAAGAUAUU [Exclusion Theophylline B GF 22]", "apparent KD of MS2 coat protein": 12.1}
{"sequence": "UGGAGUAGGGUAAAUAGGAUAAGUACAGAAGGAGCGCGAAUAAACGCAGGUAGGUCGCUGGAACACAUGAGGAUCACCCAUGUUG [Same State Arginine A GF 24]", "apparent KD of MS2 coat protein": 25.4}
{"sequence": "ACACAUGAGGAUCACCCAUGUCCAAUAGAUACCAGUGAUACGGUGCACCCUUGGCAGCUGUUACUGAGUGAUGGUUCCCUCGGAA [Same State Theophylline A GF3]", "apparent KD of MS2 coat protein": 58.7}
{"sequence": "AGAAUAACAUGAGCAAAGCUCAUGUGCGAAGGAGCGGCGGAAACGCCAGGUAGGUCGCGCACAUGAGCAUCAGCCAUGUGUACCA [Omei Arginine B SS A v5]", "apparent KD of MS2 coat protein": 58.9}
{"sequence": "ACAUGAGGAUCACCCAUGUGGCGUCUUGAUACCAGACCCGAAGUAGUCCCUUGGCAGCAACUACGUGAGGGUCGCCCAUGUGUAG [k'kmullin]", "apparent KD of MS2 coat protein": 25.5}
{"sequence": "CCUAGCACACAUGAUACCAGCGACAUGAGGAUCACCCAUGUACGGCGUGUAUCGCAAGGUUGCCCUUGGCAGCAUGAUAGUGCUG [Xeerdi]", "apparent KD of MS2 coat protein": 14.2}
{"sequence": "UUGACAUGAGGAUCACCCAUGUAAACUGAAGGAGCGUCGAAAAUGACAGGUAGGUCGCAGAAUAAUAAAGGUGAUGGUAAAUAUU [Exclusion Arginine AGF1]", "apparent KD of MS2 coat protein": 29.3}
{"sequence": "GAUUACAUGAGGAUCACCCAUGUAACUGAAGGAGCGGUAAUAAAGCCAGGUAGGUCGCGGAACAACAUGUGGAUCACCCAUGUAA [#13 Exclusion - Arginine A]", "apparent KD of MS2 coat protein": 32.7}
{"sequence": "GUACAUGAGGAUCACCCAUGUAUAGUUGAAGGAGCGACCAGAGGGUCAGGUAGGUCGCAGCACAUGAGGUAAGCCCGUGUAUGCU [#1 Exclusion - Arginine A Attempt #19 (Inspired by Pi)]", "apparent KD of MS2 coat protein": 32}
{"sequence": "CUUGUUUGUGGAAGGAGCGCGAUUACAUAACAUGAGGAUCACCCAUGUAAGAAAUUAUUCAUGCAGGUAGGUCGCCAUUGGUGGG [Same State Arginine B GF8]", "apparent KD of MS2 coat protein": 30.6}
{"sequence": "CUUGUGGUCGGAAGGAGCGCGAUUACAUAACAUGAGGAUCACCCAUGUAAGAAAUUAUUCAUGCAGGUAGGUCGCCGGUCGUGGG [Same State Arginine B GF10]", "apparent KD of MS2 coat protein": 21.8}
{"sequence": "AGCCGGAUUACGGCCGCCACUGUAGACGUGACGAAAGUCGCGUCAACAUGAGGAUCACCCAUGUACAGGACCGGGUGGUCCGGCG [Omei Trp B SS A v1]", "apparent KD of MS2 coat protein": 6.02}
{"sequence": "AAAAGAGGUGGAAGGAGCGGGAGACAUGAGGAUCACCCAUGUGAUGUUACGAAAGGUUCAGCCCAGGUAGGUCGCCAUGUCGAAA [zczzmullin]", "apparent KD of MS2 coat protein": 34.7}
{"sequence": "AAAAUAAAGGCGGCCGCCACUAGAGUUAGGCUUAUGUACUGGGUAACAUGAGGAUCACCCAUGUAUAGGACCGGGCCAUAAUAAA [Same State - Tryptophan B (Freestyle 2)]", "apparent KD of MS2 coat protein": 66.5}
{"sequence": "GGUAUUGGAACAGAUACCAGUAUCUGUUGAUCCUACAUGAGGAUCACCCAUGUUAGAAAGUACCCUUGGCAGCUGUAAUAAUGCC [Theo B Ex t1]", "apparent KD of MS2 coat protein": 49.4}
{"sequence": "CCAUGGCUAGGAAGGAGCGCAUACUUCACAUGAGGAUCACCCAUGUCGAGACGUGAGUCAGUGCAGGUAGGUCGCCUAGCCAUGG [Same State - Arginine B (Freestyle 30)]", "apparent KD of MS2 coat protein": 18.6}
{"sequence": "UUUGAUAGGACAGAUACCAGCGUGUUGUUGAACAUGAGGAUCACCCAUGUAGUGAUCAAGCGCCCUUGGCAGCUGGUUUGUUAGG [7.M]", "apparent KD of MS2 coat protein": 302}
{"sequence": "GUGAGGUUUGAUGAUACCAGAUGUGGUGGGAACAUGAGGAUCACCCAUGUUGUGAAACAGGUCCCUUGGCAGCAUGAGAGAGCUU [TheoB-ms2@32]", "apparent KD of MS2 coat protein": 52.7}
{"sequence": "CAGAACAUGAGGAUCACCCAUGUCAGGGAUACCAGCUCAGACAUGGGCCCUUGGCAGCUCUGUGGCUGACGAAAGUCAGCAUCUG [#17 SameState-TheophyllineA]", "apparent KD of MS2 coat protein": 19.5}
{"sequence": "AGAAUAACACAUGAGGAUCACCCAUGUGAUACCAGCUAGGAAACUAGCCCUUGGCAGCACAUAAUCCUCAUGAAUGUGCUGAAUA [(M1)-(M2)-(T1)-(T2)-(M)'-(T)'_Design3_2/19/17]", "apparent KD of MS2 coat protein": 59.7}
{"sequence": "GUCGCUGAGGGAAGGAGCGUGAAGACAUGAGGAUCACCCAUGUAGAGGCGCCGAAGGCGUUCGCAGGUAGGUCGCCCUCAGUGAA [#1 Same State - Arginine B Attempt #25 (HarryS)]", "apparent KD of MS2 coat protein": 15.1}
{"sequence": "UAGCGAUAAUCUGAUACCAGACGUGUGCUCUCCUCAGACAUGAGGAUCACCCAUGUAUGCGUCCCUUGGCAGCAGAGUGAGGAGA [Theo B Ex t5]", "apparent KD of MS2 coat protein": 18.6}
{"sequence": "UGUUUGGUGCGCGAGUGUUGGAUAAAUGAUACCAGUGUAGAUGUACGCCCUUGGCAGCGUAUCCGAACAUGAGGAUCACCCAUGU [5.aB]", "apparent KD of MS2 coat protein": 36.3}
{"sequence": "GUAUACAUGAGGAUCACCCAUGUACCAGAAGGAGCGCUGGAAACAGCAGGUAGGUCGCUGGUAGGUCCUCUAUCUAGACGUUCUA [EAA NP+V+V2 #5]", "apparent KD of MS2 coat protein": 79}
{"sequence": "UGGGAAGGAGGAAGGAGCGCCAUAAGGGUGACAGUCUGGGUACAUGAGGAUCACCCAUGUAGGCAGGUAGGUCGCCUAGCUCUCA [XArg-B16]", "apparent KD of MS2 coat protein": 9.56}
{"sequence": "UGACAUUGCUGCGAUACCAGACAUGAGGAUCACCCAUGUACCAAGGUAAGAAAAUAACAUGUCCCUUGGCAGCGCAGCAAUGUCU [MAT - Exclusion Theophlline B - Mod of Eli - D1]", "apparent KD of MS2 coat protein": 14.4}
{"sequence": "ACAUGAGGAUCCGAUACCAGCCACAUGAGGAUCACCCAUGUAGUACAUGAGGAUCACCCAGGCCCUUGGCAGCGGACAUGAGGAU [Exclusion - Theophylline B]", "apparent KD of MS2 coat protein": 149}
{"sequence": "ACAAGAGGGAUGGAUACCAGCGACAUGAGGAUCACCCAUGUAUGAGGAUCAGCCAUGUUAUGCCCUUGGCAGCCACGAACAUCAG [SSAMULLIN]", "apparent KD of MS2 coat protein": 18.2}
{"sequence": "UUAAUCAUUAUAGAAAACUAUAAUGCAGAAGGAGCGUGAUAAAACACAGGUAGGUCGCUGAAGGGAACAUGAGGAUCACCCAUGU [AstrosSSArgA#6]", "apparent KD of MS2 coat protein": 28.8}
{"sequence": "CUCCUGUGAGCGGCCGCCACUGGAGGCCUCGCGCGACAUGAGGAUCACCCAUGUUGGCCCGGCCUCAGGACCGGGUUCGCGCGAG [Same State - Tryptophan B Attempt #4 (HarryS)]", "apparent KD of MS2 coat protein": 10.9}
{"sequence": "AAUAGCUUGAGGAUCACCCAAGUAAAAGAUACCAGAGUGAUGAUCCUCCCUUGGCAGCUUAACGCUGAUUGAUUACAAUCAGCGA", "apparent KD of MS2 coat protein": 35.1}
